Source: US20240239915A1 (Zymeworks, published 2024)

T1: Recombinant Human Fc gamma RIIB/C (CD32b/c) Protein (R&D Systems), His-tagged (human, UniProt P31994 46-217)
T1 construct: also called human FcγRIIb/c; hFcγRIIb/c
T1 sequence: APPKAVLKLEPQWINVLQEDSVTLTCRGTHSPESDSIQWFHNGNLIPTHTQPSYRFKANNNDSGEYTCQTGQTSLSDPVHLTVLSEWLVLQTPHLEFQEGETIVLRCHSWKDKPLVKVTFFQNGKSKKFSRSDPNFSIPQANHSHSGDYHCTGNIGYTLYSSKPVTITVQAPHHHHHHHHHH

T2: Recombinant Human Fc gamma RIIA/CD32a (R167) Protein (R&D Systems), His-tagged (human, UniProt P12318 36-218)
T2 construct: also called human FcγRIIa; hFcγRIIa
T2 chain: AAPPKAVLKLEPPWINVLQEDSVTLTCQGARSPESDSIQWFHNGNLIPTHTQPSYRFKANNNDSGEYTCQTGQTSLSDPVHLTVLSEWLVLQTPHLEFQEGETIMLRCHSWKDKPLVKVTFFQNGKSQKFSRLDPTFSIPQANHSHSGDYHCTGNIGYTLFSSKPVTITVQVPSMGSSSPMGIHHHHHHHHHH

T3: Recombinant Human Fc gamma RIIIB/CD16b Protein (R&D Systems), His-tagged (human, UniProt O75015 20-208)
T3 construct: also called human FcγRIIIb; hFcγRIIIb
T3 chain: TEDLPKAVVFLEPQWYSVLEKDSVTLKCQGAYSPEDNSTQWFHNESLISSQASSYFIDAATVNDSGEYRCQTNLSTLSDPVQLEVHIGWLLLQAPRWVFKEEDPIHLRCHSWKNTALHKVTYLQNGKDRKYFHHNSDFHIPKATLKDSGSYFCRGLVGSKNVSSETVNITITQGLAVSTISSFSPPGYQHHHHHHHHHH

B1: LALA-DG variant of the anti-LPS antibody O11-1111 (IgG1) (antibody)
heavy: QVQLVQSGAEVKKPGASVKVSCKASGYTFTSYWINWVRQAPGQGLEWMGNIYPGSSSINYNEKFKSRVTITADTSTSTAYMELSSLRSEDTAVYYCARTIYNYGSSGYNYAMDYWGQGTLVTVSSASTKGPSVFPLAPSSKSTSGGTAALGCLVKDYFPEPVTVSWNSGALTSGVHTFPAVLQSSGLYSLSSVVTVPSSSLGTQTYICNVNHKPSNTKVDKRVEPKSCDKTHTCPPCPAPEAAGGPSVFLFPPKPKDTLMISRTPEVTCVVVGVSHEDPEVKFNWYVDGVEVHNAKTKPREEQYNSTYRVVSVLTVLHQDWLNGKEYKCKVSNKALPAPIEKTISKAKGQPREPQVYTLPPSREEMTKNQVSLTCLVKGFYPSDIAVEWESNGQPENNYKTTPPVLDSDGSFFLYSKLTVDKSRWQQGNVFSCSVMHEALHNHYTQKSLSLSPGK
light: DIVMTQSPDSLAVSLGERATINCKASENVGNSVSWYQQKPGQPPKLLIYGASNRYTGVPDRFSGSGSGTDFTLTISSLQAEDVAVYYCGQSYSYPYTFGQGTKVEIKRTVAAPSVFIFPPSDEQLKSGTASVVCLLNNFYPREAKVQWKVDNALQSGNSQESVTEQDSKDSTYSLSSTLTLSKADYEKHKVYACEVTHQGLSSPVTKSFNRGEC
notes: substitutions in EU numbering; also called Anti-LPS Antibody LALA-DG
B2: LALA-DG variant of the anti-CD70 antibody vorsetuzumab (IgG1) (antibody, name in EU numbering)
heavy: QVQLVQSGAEVKKPGASVKVSCKASGYTFTNYGMNWVRQAPGQGLKWMGWINTYTGEPTYADAFKGRVTMTRDTSISTAYMELSRLRSDDTAVYYCARDYGDYGMDYWGQGTTVTVSSASTKGPSVFPLAPSSKSTSGGTAALGCLVKDYFPEPVTVSWNSGALTSGVHTFPAVLQSSGLYSLSSVVTVPSSSLGTQTYICNVNHKPSNTKVDKRVEPKSCDKTHTCPPCPAPEAAGGPSVFLFPPKPKDTLMISRTPEVTCVVVGVSHEDPEVKFNWYVDGVEVHNAKTKPREEQYNSTYRVVSVLTVLHQDWLNGKEYKCKVSNKALPAPIEKTISKAKGQPREPQVYTLPPSREEMTKNQVSLTCLVKGFYPSDIAVEWESNGQPENNYKTTPPVLDSDGSFFLYSKLTVDKSRWQQGNVFSCSVMHEALHNHYTQKSLSLSPGK
light: DIVMTQSPDSLAVSLGERATINCRASKSVSTSGYSFMHWYQQKPGQPPKLLIYLASNLESGVPDRFSGSGSGTDFTLTISSLQAEDVAVYYCQHSREVPWTFGQGTKVEIKRTVAAPSVFIFPPSDEQLKSGTASVVCLLNNFYPREAKVQWKVDNALQSGNSQESVTEQDSKDSTYSLSSTLTLSKADYEKHKVYACEVTHQGLSSPVTKSFNRGEC
notes: also called Anti-CD70 Antibody LALA-DG

What was measured:
[1] = target: T4, Recombinant Human Fc gamma RI/CD64 Protein, CF (R&D Systems), His-tagged (human, UniProt P12314 16-288); assay: SPR (Biacore T200), RU at 4.7 µM antibody, anti-LPS antibody O11-1111
T4 construct: also called human FcγRI; hFcγRI
Experimental: (§1) The binding activity of an anti-EGFR antibody, into which known effectorless mutations were introduced, to human FcγRI (hFcγRI), was evaluated using Biacore™ T200 (Cytiva, Marlborough, MA). […] The noted mutations were introduced into both CH2 domains of the Fc region. […] The FcγRI ligand was captured on a sensor chip on which anti-His antibodies were immobilized. Various anti-EGFR antibodies as analytes were then added to the sensor chip to measure an interaction between the ligand and the analyte by surface plasmon resonance (SPR) method.
(§2) Briefly, anti-6×His tag antibodies [AD1.1.10] (Abcam plc, Cambridge, UK) were immobilized on Sensor Chip CM5 (Cytiva, Marlborough, MA) according to the manufacturer's instructions, and then Recombinant Human Fc gamma RI/CD64 Protein (R & D Systems) prepared at 10 μg/mL in HBS-EP+ (GE Healthcare, Chicago, IL) was captured by contacting it with the sensor chip at 10 μL/min for 60 seconds.

[2] = target: T1, Recombinant Human Fc gamma RIIB/C …; assay: SPR (Biacore T200); receptor immobilized directly on CM5 chip, antibody as analyte at 4.7 µM
Experimental: (§3) After immobilizing human FcγR as a ligand directly on the sensor chip, various anti-EGFR antibodies as analysts were added to the sensor chip to measure an interaction between the ligand and the analysts by the SPR method.

[3] = target: T5, Recombinant Human Fc gamma RIIIA/CD16a protein (R&D Systems), His-tagged (human, UniProt P08637 17-208); assay: as above
T5 construct: also called human FcγRIIIa; hFcγRIIIa
Experimental: as §3

[4] = target: T2, Recombinant Human Fc gamma RIIA/CD32a …; assay: as above
Experimental: as §3

[5] = target: T3, Recombinant Human Fc gamma RIIIB/CD16b …; assay: as above
Experimental: as §3

[6] = target: T4, Recombinant Human Fc gamma RI/CD64 …; assay: SPR (Biacore T200); His-tagged receptor captured on anti-His antibody chip, antibody as analyte at 4.7 µM; reference: LALA variant of the same antibody (anti-LPS O11-1111)
Experimental: as §1, §2

[7] = target: T4, Recombinant Human Fc gamma RI/CD64 …; assay: SPR (Biacore T200): His-tagged human FcγRI captured on an anti-His antibody chip, antibody as analyte; RU plotted against antibody concentration
[8] = target: T4, Recombinant Human Fc gamma RI/CD64 …; assay: SPR (Biacore T200), RU at 4.7 µM antibody, anti-CD70 antibody vorsetuzumab
Experimental: The FcγRI ligand was captured on a sensor chip on which anti-His antibodies were immobilized. Various anti-EGFR antibodies as analytes were then added to the sensor chip to measure an interaction between the ligand and the analyte by surface plasmon resonance (SPR) method.
Briefly, anti-6×His tag antibodies [AD1.1.10] (Abcam plc, Cambridge, UK) were immobilized on Sensor Chip CM5 (Cytiva, Marlborough, MA) according to the manufacturer's instructions, and then Recombinant Human Fc gamma RI/CD64 Protein (R & D Systems) prepared at 10 μg/mL in HBS-EP+ (GE Healthcare, Chicago, IL) was captured by contacting it with the sensor chip at 10 μL/min for 60 seconds. Then, the anti-EGFR antibody prepared at each of the given concentrations in HBS-EP+ was added to the sensor chip at a flow rate of 30 μL/min for 120 seconds.

T4 sequence (P12314 other isoform, or with tags, fused parts or gaps): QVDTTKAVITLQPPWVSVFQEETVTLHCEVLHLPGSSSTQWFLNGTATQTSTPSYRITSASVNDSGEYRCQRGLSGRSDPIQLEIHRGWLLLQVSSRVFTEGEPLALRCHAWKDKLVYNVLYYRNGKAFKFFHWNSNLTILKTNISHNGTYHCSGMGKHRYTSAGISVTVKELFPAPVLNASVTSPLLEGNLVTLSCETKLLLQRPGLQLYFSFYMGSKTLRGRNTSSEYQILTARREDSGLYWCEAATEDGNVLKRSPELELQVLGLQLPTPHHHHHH
T5 sequence (P08637 other isoform, or with tags, fused parts or gaps): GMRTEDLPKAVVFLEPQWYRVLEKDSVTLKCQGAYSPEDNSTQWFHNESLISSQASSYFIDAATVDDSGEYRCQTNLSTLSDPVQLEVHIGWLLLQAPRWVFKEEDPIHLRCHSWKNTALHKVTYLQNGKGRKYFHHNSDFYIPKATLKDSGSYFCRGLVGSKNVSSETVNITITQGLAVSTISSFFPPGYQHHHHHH

Binder | RU value relative to the LALA variant [1] [fold] | binding response (RU) [2] [RU] | binding response (RU) [3] [RU] | binding response (RU) [4] [RU] | binding response (RU) [5] [RU] | RU value relative to that of the LALA variant [6] | binding result [7] | RU value relative to the LALA variant [8] [fold]
B1 | ~0.0033 | -2.6 | -7.2 | -2.2 | -7.1 | ~0.0033 ratio (LALA-DG RU / LALA RU) |  | 
B2 |  | 1.3 | -2.1 |  | -3.7 |  | no binding (tested: 4.7 µM) | ~0.005
